Source: US20110091992A1 (AstraZeneca / MedImmune, published 2011)

Legend:
[1] = target: Human CD16 (V158 allotype), soluble (human) (UniProt P08637); assay: SPR (BIAcore 3000), Fc amine-coupled to CM5 chip, soluble CD16 V158 at 1 nM-1.6 µM, steady-state isotherm fit, 25 C
Human FcγRIIA [2] = target: T1, Human FcγRIIA (human, UniProt P12318 34-217, limits assumed); assay: SPR (BIAcore 3000), immobilised Fc/Mut2, human FcγRIIA injected at 8 µM
T1 construct: The construct is not described
T1 sequence (looked up): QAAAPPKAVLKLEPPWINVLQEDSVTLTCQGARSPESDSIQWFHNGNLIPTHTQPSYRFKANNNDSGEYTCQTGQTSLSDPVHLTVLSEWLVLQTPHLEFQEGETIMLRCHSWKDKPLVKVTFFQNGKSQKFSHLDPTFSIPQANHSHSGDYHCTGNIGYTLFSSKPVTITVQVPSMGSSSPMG

Human FcγRIIB = target: T2, Human FcγRIIB (human, UniProt P31994 43-217, limits assumed); assay: SPR (BIAcore 3000), immobilised Fc/Mut3, human FcγRIIB injected at 8 µM
T2 construct: The construct is not described
T2 sequence (looked up): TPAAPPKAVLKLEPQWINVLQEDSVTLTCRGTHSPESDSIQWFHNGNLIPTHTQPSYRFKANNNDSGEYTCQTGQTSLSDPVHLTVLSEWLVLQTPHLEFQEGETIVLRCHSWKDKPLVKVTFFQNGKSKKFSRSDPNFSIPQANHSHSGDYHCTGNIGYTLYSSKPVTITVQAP

Human FcγRIIA [3] = target: T1, Human FcγRIIA; assay: SPR (BIAcore 3000), immobilised Fc/Mut3, human FcγRIIA injected at 8 µM

Sequence of Human CD16 (V158 allotype), soluble (human) (P08637 17-208 F176V): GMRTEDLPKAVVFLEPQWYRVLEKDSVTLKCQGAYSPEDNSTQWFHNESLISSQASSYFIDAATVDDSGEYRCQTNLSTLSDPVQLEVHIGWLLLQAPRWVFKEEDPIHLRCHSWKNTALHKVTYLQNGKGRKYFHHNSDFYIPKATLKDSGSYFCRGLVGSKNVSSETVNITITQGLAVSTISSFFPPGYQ

For “Unmutated human Fc (from UniProt P0DOX5 225-449)”, the Kd [1] was 157 nM.

B1: Fc/Mut2 (other)
chain: THTCPPCPAPELLGGPSVFLFPPKPKDTLMISRTPEVTCVVVDVSHEDPEVKFNWYVDGVEVHNAKTKPRENSTYRVVSVLTVLHQDWLNGKEYKCKVSNKALPAPIEKTISKAKGQPREPQVYTLPPSREEMTKNQVSLTCLVKGFYPSDIAVEWESNGQPENNYKTTPPVLDSDGSFFLYSKLTVDKSRWQQGNVFSCSVMHEALHNHYTQKSLSLSPGK
notes: It was made in the same expression construct as the unmutated human Fc and expressed in HEK 293 cells
B1: no binding (tested: 8 µM) (Human FcγRIIA [2]).

B2: Fc/Mut3 (other)
chain: THTCPPCPAPELLGGPSVFLFPPKPKDTLMISRTPEVTCVVVDVSHEDPEVKFNWYVDGVEVHNAKTKPRENSTVVSVLTVLHQDWLNGKEYKCKVSNKALPAPIEKTISKAKGQPREPQVYTLPPSREEMTKNQVSLTCLVKGFYPSDIAVEWESNGQPENNYKTTPPVLDSDGSFFLYSKLTVDKSRWQQGNVFSCSVMHEALHNHYTQKSLSLSPGK
notes: as for B1
B2: no binding (tested: 8 µM) (Human FcγRIIB); no binding (tested: 8 µM) (Human FcγRIIA [3]).
